# Laboratory results published in patent publication US20170355730A1 (ENTRADA THERAPEUTICS, published 2017).
# Starred links: 1 amine or outer side, 2 acyl side, 3 side chain; linkers in the order of their positions; H or OH if unused. Non-standard residues stand in square brackets, D forms with d. Primed or numbered codes have the meaning given here. No end group written: not given here. *: point of attachment. FITC = O=C1OC2(c3ccc(O)cc3Oc3cc(O)ccc32)c2ccc(NC(=S)*)cc21; Trimesoyl = O=C(c1cc(C(=O)[*:2])cc(C(=O)[*:3])c1)[*:1]; F2Pmp = N[C@@H](Cc1ccc(C(F)(F)P(=O)(O)O)cc1)C(=O)O; Phe(4-F) = N[C@@H](Cc1ccc(F)cc1)C(=O)O; dPhe(4-F) = N[C@H](Cc1ccc(F)cc1)C(=O)O; 2Nal = N[C@@H](Cc1ccc2ccccc2c1)C(=O)O; Pip′ = L-homoproline (pipecolyl); AMC = Cc1cc(=O)oc2cc(N*)ccc12; Phg = N[C@H](C(=O)O)c1ccccc1; Nle = CCCC[C@H](N)C(=O)O; Abu = CC[C@H](N)C(=O)O; Dap = NC[C@H](N)C(=O)O; Butyryl = CCCC(=O)*
# T1: Caspase-3, Human, recombinant protein (human, UniProt P42574 29-277, limits assumed)
# T1 sequence (looked up): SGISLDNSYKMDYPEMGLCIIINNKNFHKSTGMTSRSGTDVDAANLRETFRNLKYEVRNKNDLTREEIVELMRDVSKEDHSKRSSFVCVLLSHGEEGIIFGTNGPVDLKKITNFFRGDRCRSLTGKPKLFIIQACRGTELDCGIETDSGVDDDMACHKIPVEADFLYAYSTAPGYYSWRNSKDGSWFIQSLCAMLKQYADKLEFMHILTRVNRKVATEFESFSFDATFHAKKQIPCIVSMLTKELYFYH
# T2: ybbR-tagged PTP1B catalytic domain (amino acids 1-321) (UniProt P18031 1-321, Texas Red attached through CoA/Sfp to the ybbR tag (library screening only))
# T2 construct: range 1-321; also called Texas red-labeled PTP1B; protein-tyrosine phosphatase 1B
# T2 sequence: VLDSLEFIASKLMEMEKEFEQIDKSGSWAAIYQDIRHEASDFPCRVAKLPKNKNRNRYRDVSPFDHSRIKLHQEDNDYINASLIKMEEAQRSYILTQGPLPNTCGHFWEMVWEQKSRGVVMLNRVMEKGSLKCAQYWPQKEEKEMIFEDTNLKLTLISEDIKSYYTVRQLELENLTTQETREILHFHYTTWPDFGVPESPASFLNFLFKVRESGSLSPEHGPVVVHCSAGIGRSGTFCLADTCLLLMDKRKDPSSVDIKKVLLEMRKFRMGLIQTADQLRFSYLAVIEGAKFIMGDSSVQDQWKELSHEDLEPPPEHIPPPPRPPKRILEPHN
# B1: peptide 7 (Table 10, R9 conjugate) (peptide)
# peptide: Ac-RRRRRRRRRD[Nle][Abu]D-{AMC}
# SMILES: CCCC[C@H](NC(=O)[C@H](CC(=O)O)NC(=O)[C@H](CCCNC(=N)N)NC(=O)[C@H](CCCNC(=N)N)NC(=O)[C@H](CCCNC(=N)N)NC(=O)[C@H](CCCNC(=N)N)NC(=O)[C@H](CCCNC(=N)N)NC(=O)[C@H](CCCNC(=N)N)NC(=O)[C@H](CCCNC(=N)N)NC(=O)[C@H](CCCNC(=N)N)NC(=O)[C@H](CCCNC(=N)N)NC(C)=O)C(=O)N[C@@H](CC)C(=O)N[C@@H](CC(=O)O)C(=O)Nc1ccc2c(C)cc(=O)oc2c1
# B2: peptide 8 (Table 10, CAL-PDZ inhibitor), reduced linear form (peptide)
# peptide: {FITC}-CRRRRFWQCTRV
# modifications: also: disulfide reduced by TCEP (free thiols)
# notes: As assayed in the presence of 2 mM tris(carboxylethyl)phosphine
# B3: peptide 37 (Table 18) (peptide)
# peptide: Trimesoyl-[dPhe(4-F)][Phe(4-F)][dT][Pip′][2Nal]RA[dF][Dap]F[2Nal]RRRR[Dap]K
# modifications: linker (positions not given here) via Trimesoyl; not fully specified (bridges); printed as bicyclo[Tm-(D-4-Fpa-Fpa-D-Thr-Pip-Nal-Arg-Ala-D-Phe)-Dap-(Phe-Nal-Arg-Arg-Arg-Arg-Dap)]-Lys
# B4: Monocyclic Inhibitor 1 (peptide)
# peptide: cyclo([dT][dN][dV][F2Pmp][dA]RRRR[2Nal]FQ)
# SMILES: CC(C)[C@H]1NC(=O)[C@@H](CC(N)=O)NC(=O)[C@@H]([C@H](C)O)NC(=O)[C@H](CCC(N)=O)NC(=O)[C@H](Cc2ccccc2)NC(=O)[C@H](Cc2ccc3ccccc3c2)NC(=O)[C@H](CCCNC(=N)N)NC(=O)[C@H](CCCNC(=N)N)NC(=O)[C@H](CCCNC(=N)N)NC(=O)[C@H](CCCNC(=N)N)NC(=O)[C@@H](C)NC(=O)[C@H](Cc2ccc(C(F)(F)P(=O)(O)O)cc2)NC1=O
# B5: peptide 3 (Table 10, caspase 3/7 substrate) (peptide)
# peptide: Ac-D[Nle][Abu]D-{AMC}
# SMILES: CCCC[C@H](NC(=O)[C@H](CC(=O)O)NC(C)=O)C(=O)N[C@@H](CC)C(=O)N[C@@H](CC(=O)O)C(=O)Nc1ccc2c(C)cc(=O)oc2c1
# Columns and labels:
# [1] = biological target: T1, Caspase-3, Human, recombinant protein; assay: cell-based or functional assay
# [2] = biological target: T1, Caspase-3, Human, recombinant protein; assay: cell-based or functional assay; remark: listed apart in the source
# CAL-PDZ domain = CAL-PDZ domain (UniProt Q9HD26 286-370); assay: fluorescence anisotropy, FITC-labeled peptide, in the presence of 2 mM tris(carboxylethyl)phosphine
# [3] = biological target: T2, ybbR-tagged PTP1B catalytic domain …; assay: PTP1B-catalyzed pNPP hydrolysis, competitive inhibition (Lineweaver-Burk and secondary plot)
# [4] = biological target: T2, ybbR-tagged PTP1B catalytic domain …; assay: cell-based or functional assay
# Pin4 = Pin4 (human, UniProt Q9Y237 1-131, limits assumed); assay: cell-based or functional assay
# Sequence of Pin4 (Q9Y237 whole entry): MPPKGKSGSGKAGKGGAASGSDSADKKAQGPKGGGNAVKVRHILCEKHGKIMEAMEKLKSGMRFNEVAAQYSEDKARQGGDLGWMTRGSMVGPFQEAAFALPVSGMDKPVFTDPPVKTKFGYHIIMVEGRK
Binder,ΔFU/min [2],IC50 (inhibition of pNPP hydrolysis) [4] [nM],other results
B1,45.3 ΔFU/min,,decrease of activity relative to peptide 3 [1]: 72%
B2,,,Kd (CAL-PDZ domain): 489 nM
cyclo(S[dV]P[F2Pmp]HRRRR[2Nal]FQ) [Monocyclic Inhibitor 2],,~30,Ki [3]: 54 nM
B3,,,IC50 of Pin4 isomerase activity (Pin4): ~34000 nM
"Butyryl-RRRR[2Nal]FD[Nle][Abu]D-{AMC} [peptide 6 (Table 10, linear control)]",74.7 ΔFU/min,,decrease of activity relative to peptide 3 [1]: 53%
B4,,~100,
B5,159 ΔFU/min,,
cyclo(IP[Phg][F2Pmp][Nle]RRRR[2Nal]FQ) [Monocyclic Inhibitor 3],,~200,
